Earlier results, collected in paper PMC8616177.
Where two headings read alike, the source gives them in different places.

How the values were obtained:
EGFR (Homo sapiens) [1] = molecular target: EGFR (Homo sapiens) (UniProt P00533)
EGFR (Homo sapiens) [2] = molecular target: EGFR (Homo sapiens) (UniProt P00533); remark: listed apart in the source

| Kd (EGFR (Homo sapiens) [1]) | Substance | Kd (EGFR (Homo sapiens) [2]) |
| --- | --- | --- |
| 0.0015 µM | EGF (from UniProt P01133) | – |
| – | GE11 | 0.022 µM |
